Measured values: patent US20210371539A1 (Genmab, published 2021)

T1: Human CD20 (human, UniProt P11836 1-297)
T1 construct: Endogenous CD20 on the human lymphoma cell line Daudi
T1 sequence: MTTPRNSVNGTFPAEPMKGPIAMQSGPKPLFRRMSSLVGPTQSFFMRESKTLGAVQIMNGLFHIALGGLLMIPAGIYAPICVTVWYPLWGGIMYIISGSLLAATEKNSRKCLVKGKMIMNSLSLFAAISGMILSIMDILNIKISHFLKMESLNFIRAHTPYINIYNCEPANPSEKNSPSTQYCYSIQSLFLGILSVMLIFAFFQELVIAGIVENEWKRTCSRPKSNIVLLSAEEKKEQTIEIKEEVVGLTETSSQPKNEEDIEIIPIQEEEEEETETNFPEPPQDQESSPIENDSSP

T2: Human CD37 (human, UniProt P11049 1-281)
T2 construct: Endogenous CD37 on the human lymphoma cell line Daudi; also called Leukocyte Antigen CD37; GP52-40
T2 sequence: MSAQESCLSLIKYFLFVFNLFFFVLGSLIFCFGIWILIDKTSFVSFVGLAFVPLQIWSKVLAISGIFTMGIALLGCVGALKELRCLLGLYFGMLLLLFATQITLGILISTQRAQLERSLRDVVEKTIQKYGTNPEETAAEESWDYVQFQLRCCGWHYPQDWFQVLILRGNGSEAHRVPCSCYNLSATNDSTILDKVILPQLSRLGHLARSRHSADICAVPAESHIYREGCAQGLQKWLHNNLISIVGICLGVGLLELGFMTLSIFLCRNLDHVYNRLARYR

B1: IgG1-CD20-11B8-E430G (antibody, V domains shown)
VH: EVQLVQSGGGLVHPGGSLRLSCTGSGFTFSYHAMHWVRQAPGKGLEWVSIIGTGGVTYYADSVKGRFTISRDNVKNSLYLQMNSLRAEDMAVYYCARDYYGAGSFYDGLYGMDVWGQGTTVTVSS
VL: EIVLTQSPATLSLSPGERATLSCRASQSVSSYLAWYQQKPGQAPRLLIYDASNRATGIPARFSGSGSGTDFTLTISSLEPEDFAVYYCQQRSDWPLTFGGGTKVEIKR
modifications: Conjugated to Alexa Fluor 555 or 647 in the FRET assays only (about 3 dyes per antibody, sites not stated).
notes: IgG1 kappa with E430G (EU numbering) in the Fc; also called Hx-CD20-11B8; Hx-CD20-11B
B2: IgG1-CD20-11B8 (antibody, V domains shown)
VH: B1 VH
VL: EIVLTQSPATLSLSPGERATLSCRASQSVSSYLAWYQQKPGQAPRLLIYDASNRATGIPARFSGSGSGTDFTLTISSLEPEDFAVYYCQQRSDWPLTFGGGTKVEIK
notes: Expressed as IgG1 kappa with wild type Fc; In the FRET assays it was conjugated to Alexa Fluor 555 or 647; also called WT type II CD20 antibody IgG1-CD20-11B8
B3: IgG1-CD37-37.3-E430G (antibody, V domains shown)
VH: QVQVKESGPGLVAPSQSLSITCTVSGFSLTTSGVSWVRQPPGKGLEWLGVIWGDGSTNYHSALKSRLSIKKDHSKSQVFLKLNSLQTDDTATYYCAKGGYSLAHWGQGTLVTVSA
VL: DIQMTQSPASLSVSVGETVTITCRASENIRSNLAWYQQKQGKSPQLLVNVATNLADGVPSRFSGSGSGTQYSLKINSLQSEDFGTYYCQHYWGTTWTFGGGTKLEIKR
modifications: Conjugated to Alexa Fluor 555 or 647 in the FRET assays only (about 3 dyes per antibody, sites not stated).
notes: IgG1 kappa with E430G (EU numbering) in the Fc; also called hexamerization-enhanced CD37 antibody
B4: IgG1-CD37-37.3 (antibody, V domains shown)
VH: B3 VH
VL: DIQMTQSPASLSVSVGETVTITCRASENIRSNLAWYQQKQGKSPQLLVNVATNLADGVPSRFSGSGSGTQYSLKINSLQSEDFGTYYCQHYWGTTWTFGGGTKLEIK
notes: Expressed as IgG1 kappa with wild type Fc; In the FRET assays it was conjugated to Alexa Fluor 555 or 647 (about 3 dye molecules per antibody)

Experiments:
Human CD20 = biological target: T1, Human CD20; test: flow cytometry FRET with fluorophore-conjugated antibodies on Daudi cells
Description: (§1) 0.5×10⁶ Daudi cells/well were incubated with 10 μg/mL A555-conjugated donor antibodies and/or 10 μg/mL A647-conjugated acceptor antibodies in a total volume of 100 μL RPMI/0.2% BSA in 96-well round-bottom plates (Greiner Bio-One, Cat No 650101) for 15 minutes at 37° C. in a water bath. Cells were washed twice with FACS buffer, pelleted by centrifugation (3 min at 300×g) and resuspended in 200 μL PBST. Mean fluorescence intensities (MFI) were determined by flow cytometry on a FACS Canto II (BD Biosciences) by recording 10,000 events at 585/42 nm (FL2, donor A555) and […] (FL3), both excited at 488 nm, and at 660/20 nm (FL4, acceptor A647), excited at 635 nm. Unquenched donor fluorescence intensity was determined from cells incubated with only A555-conjugated donor antibodies, and non-enhanced acceptor intensity was determined from cells incubated with only A647-conjugated acceptor antibodies. Proximity-induced FRET was determined by measuring the energy transfer between cells incubated with both A555-conjugated donor and A647-conjugated acceptor antibodies. MFI values were used to calculate FRET according to the following equation: energy transfer (ET)=FL3(D,A)−FL2(D,A)/a−FL4(D,A)/b, wherein a=FL2(D)/FL3(D), b=FL4(A)/FL3(A), D is donor, A is acceptor and FLn (D,A)=donor+acceptor. ET values obtained were normalized according to the following equation: normalized energy transfer (%)=100*ET/FL3(D, A).

IgG1-CD37-37.3-E430G = biological target: B3; test: FRET by flow cytometry, A555/A647-conjugated antibodies on Daudi cells; Fc-Fc interaction between cell-bound antibodies
Description: as §1, with “ET values obtained were normalized according to the following equation: normalized energy transfer (%)=100*ET/FL3(D, A).” left out

Human CD37 [1] = biological target: T2, Human CD37; test: conclusion from CDC assays on Daudi and WIL2-S cells
Human CD37 [2] = biological target: T2, Human CD37; test: flow cytometry FRET with fluorophore-conjugated antibodies on Daudi cells
Description: as §1

Binder: B1
binding result (Human CD20): binds | binding result (IgG1-CD37-37.3-E430G): binds

Binder: B2
binding result (Human CD20): binds

Binder: B3
binding result (Human CD37 [1]): binds

Binder: B4
binding result (Human CD37 [2]): binds
